According to US20030022244A1:

Molecular target: mutant p53 protein
Assay: method not stated

- Kd: 100 nM
B1: ME1 single-chain antibody (scFv ME1) (scFv)
scFv: QVKLQQSGAELAKPGASVKMSCKTSGYTFTSYWMNWVKQRPGQGLEWIGYINPTTGYTKYNQKFKDKATLTADKSSSTAYMQLSSLTNVDSAVYYCTTGYSYFDYWGQGTTVTVSSGGGGSGGGGSGGGGSDIELTQSPAIMSASPGEKVTITCSASSSVNYMHWFQQKPGTSPKLWISSTSNLASGVPARFSGSGSGTSYSLTISRMEAEDAATYYCQQRSSYPYTFGGGTKLQIKRAAAGAPVPYPDPLEPRAA
